Target: the molecule itself
Test: cross-linking

B1: PomA-L22C/T33C (natural protein, Vibrio alginolyticus, UniProt O06873 1-253, looked up)
chain: MDLATLLGLIGGFAFVIMAMVCGGSIGMFVDVCSILIVVGGSIFVVLMKFTMGQFFGATKIAGKAFMFKADEPEDLIAKIVEMADAARKGGFLALEEMEINNTFMQKGIDLLVDGHDADVVRAALKKDIALTDERHTQGTGVFRAFGDVAPAMGMIGTLVGLVAMLSNMDDPKAIGPAMAVALLTTLYGAILSNMVFFPIADKLSLRRDQETLNRRLIMDGVLAIQDGQNPRVIDSYLKNYLNEGKRALEIDE
stoichiometry N: ≤ 5
